# Measurements: patent publication US20140348836A1 (published 2014)
# Residue numbers refer to the chain shown, from its start. Numbers in names are those of the source.
# B1: Antibody clone A4 (antibody, human IgG1, lambda, V domains shown)
# VH: EVQLLESGGGLVQPGGSLRLSCAASGFTFSTYGMHWVRQAPGKGLEWLSYISGGSSYIFYADSVRGRFTISRDNSENALYLQMNSLRAEDTAVYYCARILRGGSGMDLWGQGTLVTVSS
# VL: QSVLTQPPSASGTPGQRVTISCTGSTSNIGAGYKVYWYQQLPGTAPKLLIYGNINRPSGVPDRFSGSKSGTSASLAISGLRSEDEADYYCAAWDDSLSGLVFGGGTKLTVLG
# notes: Tested as purified antibody; full chains are assembled here from VH/VL plus these; also called A4 ANTI-CD40 ANTIBODY
# B2: Antibody B44 (antibody, V domains shown)
# VH: B1 VH
# VL: B1 VL with T26S, K34D
# notes: Parent agonistic anti-CD40 antibody from the n-CoDeR library; Run alongside the IgG clones as 'B44 antibody' and detected with anti-human Ig on RAMOS cells; also called B44 antibody; original anti-CD40 antibody
# B3: Antibody clone H11 (antibody, human IgG1, lambda, V domains shown)
# VH: B1 VH
# VL: B1 VL with T26S, K34N, D95G, S96G, S98L
# notes: also called H11 ANTI-CD40 ANTIBODY
# B4: Antibody clone C4 (antibody, human IgG1, lambda, V domains shown)
# VH: B1 VH with S63T
# VL: B1 VL
# notes: Same VL changes as A4; VH carries S63T; also called C4 ANTI-CD40 ANTIBODY
# B5: Antibody clone F6 (antibody, human IgG1, lambda, V domains shown)
# VH: B1 VH
# VL: B1 VL with T26S, K34D, G52R, D95G, S98L
# B6: Antibody clone B9 (antibody, human IgG1, lambda, V domains shown)
# VH: B1 VH
# VL: B1 VL with T26S, K34N, D95G, S96G, S98L
# B7: Antibody clone A5 (antibody, human IgG1, lambda, V domains shown)
# VH: B1 VH
# VL: B1 VL with T26S, K34H, N53S, A73G, D95S, L97S
# B8: Antibody clone F9 (antibody, human IgG1, lambda, V domains shown)
# VH: B1 VH
# VL: B1 VL with T26S, K34G, D95G, S96T, S98T, V101L
# Target: T1, human CD40 on cells (human, UniProt P25942 21-277)
# Assay: cell-based or functional assay
# T1 sequence (P25942 21-277): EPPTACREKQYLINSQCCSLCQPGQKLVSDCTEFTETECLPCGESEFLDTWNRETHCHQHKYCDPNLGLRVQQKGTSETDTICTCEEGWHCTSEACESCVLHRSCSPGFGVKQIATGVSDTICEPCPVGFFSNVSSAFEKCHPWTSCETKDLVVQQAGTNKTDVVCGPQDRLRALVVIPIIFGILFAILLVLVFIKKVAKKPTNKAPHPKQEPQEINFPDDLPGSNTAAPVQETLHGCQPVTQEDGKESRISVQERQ
Binder,EC50 of CD80 up-regulation on monocyte-derived dendritic cells (FACS) [µg/mL],EC50 of CD86 up-regulation on monocyte-derived dendritic cells (FACS) [µg/mL],EC50 of MHC II up-regulation on monocyte-derived dendritic cells (FACS) [µg/mL],Maximum Fold Increase of CD80 on dendritic cells [fold],Maximum Fold Increase of CD86 on dendritic cells [fold],Maximum Fold Increase of MHC II on dendritic cells [fold]
B1,0.17,0.13,0.14,599,149,851
B2,0.25,0.37,0.51,584,132,811
B3,0.14,0.14,0.22,641,195,481
B4,0.031,0.11,0.04,609,164,395

# Target: T1, human CD40 on cells
# Assay: cell-based or functional assay
# Remark: another data set of the same source
Binder,Allo DC/T IFN-γ EC50 [µg/mL],Allo DC/T IFN-γ Max [pg/mL]
B1,0.04,8.9
B2,0.2,8.7
B3,0.03,9.5
B5,0.15,9
B6,0.03,8.5
B4,0.12,9
B7,0.08,9.5

# Target: T1, human CD40 on cells
# Assay: cell-based or functional assay
# Remark: another data set of the same source
row,Binder,"Activation of B cells, EC50 (proliferation of CD19+ B cells, Cell titer-Glo) [µg/mL]"
1,B1,0.16
2,B2,0.204
3,B3,0.46
4,B5,0.4
5,B6,0.48
6,B4,0.288
7,B7,0.29
8,B8,0.21

# Target: T1, human CD40 on cells
# Assay: cell-based or functional assay
# Remark: another data set of the same source
row,Binder,Fold change in potency versus B44 antibody (rescue of huCD40/WEHI-231 cells from apoptosis and growth arrest) [fold]
1,B1,46
2,B6,38
3,B4,52
4,B7,19

# Target: T2, CD40hfc (R&Dsystems, USA) (UniProt P25942 21-193)
# T2 construct: Bought reagent; also called immobilized CD40 receptor; target; not shown: Fc part ('hfc') of the bought fusion
# Assay: SPR, physiological pH and 37 C
# Protocol: (§1) The affinity measures of purified antibodies by surface plasmon resonance using the Biacore 3000 instrument was performed according to manufacturer's protocols.
# (§2) The CD40hfc (R&Dsystems, USA) was immobilized to the BIAcore sensorchip, CMS, using conventional amine coupling. The anti-CD40 antibodies of the invention, (serially diluted 1/3 from 1-0.012 nM) were analysed for binding in HBS-P (GE, BR-1003-68) at a flow rate of 30 μl/min at 37° C. and pH 7.3. The association was followed for 3 minutes and the dissociation for 10 minutes. Regeneration was performed twice using 50 mM NaOH for 30 seconds. The kinetic parameters and the affinity constants were calculated using BlAevaluation 4.1 software.
# T2 sequence (P25942 21-193 limits assumed): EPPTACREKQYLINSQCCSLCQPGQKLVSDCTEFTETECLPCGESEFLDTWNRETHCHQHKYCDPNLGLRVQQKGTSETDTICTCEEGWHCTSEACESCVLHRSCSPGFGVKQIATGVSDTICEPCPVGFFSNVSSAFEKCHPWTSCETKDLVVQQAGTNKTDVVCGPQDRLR
row,Binder,fold improvement of affinity versus B44 [fold]
1,B1,~100
2,B3,~100
3,B5,~100
4,B6,~100
5,B4,~100
6,B7,~100
7,B8,~100

# Target: T1, human CD40 on cells
# Assay: flow cytometry (FACS) on RAMOS cells
# Protocol: (§3) The human Burkitt's lymphoma cell line RAMOS was used for binding analysis (ECACC, Sigma Aldrich, USA). The unconjugated anti-CD40 antibodies of the invention were assayed for binding to RAMOS cells.
# (§4) RAMOS cells, approximately 125,000 cells, were incubated with anti-CD40 antibody, serially diluted 1/3 from 30-0.0015 μg/ml, for 30 minutes at 4° C. The cells were washed twice with FACS buffer and the secondary antibody, anti-human Ig Rabbit F(ab′)2/FITC (DAKO, Glostrup, Denmark), was subsequently added to the cells for another 30 minutes at 4° C. The cells were washed and analysed on a FACScalibur instrument, according to the manufacturer's instructions (Becton Dickinson, USA) and then the mean fluorescent intensity (“MFI”) was determined.
row,Binder,fold increase in potency (binding to RAMOS cells) versus B44 [fold]
1,B1,~100
2,B3,~100
3,B5,~100
4,B6,~100
5,B4,~100
6,B7,~100

# Target: T1, human CD40 on cells
# Assay: flow cytometry (FACS) on RAMOS cells, anti-human Ig F(ab')2-FITC detection, MFI
# Protocol: as §3, §4
row,Binder,EC50 [µg/mL]
1,B1,0.007
2,B2,0.38
3,B3,0.0044
4,B5,0.0058
5,B6,0.0049
6,B4,0.0061
7,B7,0.0062

# Target: T2, CD40hfc (R&Dsystems, USA)
# Assay: SPR (Biacore 3000), CD40hfc amine-coupled on chip, antibody as analyte, 37 C, pH 7.3
# Protocol: as §1, §2
Binder,Kd [nM],koff [s⁻¹],kon [M⁻¹ s⁻¹]
B1,0.01,7.6e-05,7.3e+06
B2,1.7,0.0045,2.7e+06
B3,0.016,0.00013,8.5e+06
B6,0.014,0.00012,8.5e+06
B7,0.011,9.6e-05,8.5e+06

# Target: T2, CD40hfc (R&Dsystems, USA)
# Assay: SPR (Biacore 3000), CD40hfc amine-coupled on chip, antibody as analyte, 37 C, acetate buffer pH 5.4
# Protocol: as §1, §2
# Alternatively, samples were incubated in Acetate buffer pH 5.4, 10 mM Acetate, 150 mM NaCl, 0.005% T20, at 37° C.
Binder,Kd [nM],koff [s⁻¹],kon [M⁻¹ s⁻¹]
B1,0.02,0.00022,1.1e+07
B2,0.93,0.0055,6e+06
B6,0.033,0.00032,9.7e+06
B7,0.022,0.00025,1.1e+07
